In publication PMC12663309:

Molecular target: NEK7-mut (NEK7 with deletion of the binding sites) (UniProt Q8TDX7)
Assay: SPR; Biacore T200; NEK7 or NEK7-mut immobilised by amine coupling; SDHB flowed at different concentrations; 1:1 Langmuir binding model

Chain of NEK7-mut (NEK7 with deletion of the binding sites) (Q8TDX7 whole entry, stated change not applied): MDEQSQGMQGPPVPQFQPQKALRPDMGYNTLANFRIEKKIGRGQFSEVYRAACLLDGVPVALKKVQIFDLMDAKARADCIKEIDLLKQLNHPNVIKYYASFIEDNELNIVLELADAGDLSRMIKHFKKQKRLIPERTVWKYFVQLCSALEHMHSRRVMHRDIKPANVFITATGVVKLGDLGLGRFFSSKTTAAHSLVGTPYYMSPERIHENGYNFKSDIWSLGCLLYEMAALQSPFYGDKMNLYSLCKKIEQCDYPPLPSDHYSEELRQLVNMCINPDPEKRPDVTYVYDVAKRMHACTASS

B1: human SDHB recombinant protein (Ag29868, Proteintech) (natural protein)
chain: AQTAAATAPRIKKFAIYRWDPDKAGDKPHMQTYEVDLNKCGPMVLDALIKIKNEVDSTLTFRRSCREGICGSCAMNINGGNTLACTRRIDTNLNKVSKIYPLPHMYVIKDLVPDLSNFYAQYKSIEPYLKKKDESQEGKQQYLQSIEEREKLDGLYECILCACCSTSCPSYWWNGDKYLGPAVLMQAYRWMIDSRDDFTEERLAKLQDPFSLYRCHTIMNCTRTCPKGLNPGKAIAEIKKMMATYKEKKASV
**Q.** With B1 as the binder, how does the Kd read?
**A.** 4.75 µM
